Measurements: US20080299140A1, “Immunogenic Composition and Peptide Sequences for Prevention and Treatment of an Hsv Condition” (priority 2002, published 2008)

Assays:
[1] = molecular target: DR13=HLA-DR(α1*0101,α1*1301) (human); assay: HLA class II competition binding assay, biotinylated tracer peptide
[2] = molecular target: DR3=HLA-DR(α1*0101,α1*0301) (human); assay: as above
[3] = molecular target: HLA-DR(α1*0101,α1*0301) (human); assay: competition assay on purified HLA; tracer MT (2-16)
[4] = molecular target: HLA-DR(α1*0101,α1*1301) (human); assay: competition assay on purified HLA; tracer B1 (21-36)
[5] = molecular target: DP402=HLA-DR(α1*0101,α1*0402) (human); assay: HLA class II competition binding assay, biotinylated tracer peptide
[6] = molecular target: DP401=HLA-DP(α1*0101,α1*0401) (human); assay: as above
[7] = molecular target: HLA-DP(α1*0101,α1*0401) (human); assay: competition assay on purified HLA; tracer bOxy 271-287
[8] = molecular target: DP (α1*0101, α1*0402) (human); assay: as above
[9] = molecular target: HLA-DR(α1*0101,α3*0101) (human); assay: competition assay on purified HLA; tracer LOL (191-210)
[10] = molecular target: HLA-DR(α1*0101,α4*0101) (human); assay: competition assay on purified HLA; tracer E2/E168
[11] = molecular target: DRB4=HLA-DR(α1*0101,α4*0101) (human); assay: HLA class II competition binding assay, biotinylated tracer peptide
[12] = molecular target: DRB3=HLA-DR(α1*0101,α3*0101) (human); assay: as above
[13] = molecular target: DR7=HLA-DR(α1*0101,α1*0701) (human); assay: as above
[14] = molecular target: DR11=HLA-DR(α1*0101,α1*1101) (human); assay: as above
[15] = molecular target: DRB5=HLA-DR(α1*0101,α5*0101) (human); assay: as above
[16] = molecular target: DR15=HLA-DR(α1*0101,α1*1501) (human); assay: as above
[17] = molecular target: HLA-DR(α1*0101,α1*0701) (human); assay: competition assay on purified HLA; tracer YKL
[18] = molecular target: HLA-DR(α1*0101,α1*1501) (human); assay: competition assay on purified HLA; tracer A3 (152-166)
[19] = molecular target: HLA-DR(α1*0101,α5*0101) (human); assay: competition assay on purified HLA; tracer HA (307-319)
[20] = molecular target: HLA-DR(α1*0101,α1*1101) (human); assay: as above
[21] = molecular target: DR4=HLA-DR(α1*0101,α1*0401) (human); assay: HLA class II competition binding assay, biotinylated tracer peptide
[22] = molecular target: DR1=HLA-DR(α1*0101,α1*0101) (human); assay: as above
[23] = molecular target: HLA-DR(α1*0101,α1*0101) (human); assay: competition assay on purified HLA; tracer HA (307-319)
[24] = molecular target: HLA-DR(α1*0101,α1*0401) (human); assay: as above

HSV1 12 (gB568-594) (peptide), sequence (P06436 597-623): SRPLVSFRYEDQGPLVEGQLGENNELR
HSV1 13 (gB590-612) (peptide), sequence (P06436 619-641): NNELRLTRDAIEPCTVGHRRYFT
HSV1 14 (gB607-634) (peptide), sequence (P06436 636-663): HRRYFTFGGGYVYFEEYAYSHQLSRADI

In the case of HSV1 12 (gB568-594) (peptide), the IC50 [1] is reported as > 100000 nM, the IC50 [2] is reported as > 100000 nM and the IC50 [3] is reported as > 100000 nM. For the same substance, the IC50 [4] was > 100000 nM.
HSV1 13 (gB590-612) (peptide) was tested, and the IC50 [5] was > 100000 nM, the IC50 [6] was > 100000 nM and the IC50 [7] was > 100000 nM. For the same substance, the IC50 [8] was > 100000 nM.
HSV1 14 (gB607-634) (peptide) was tested, and the IC50 [3] was > 100000 nM and the IC50 [9] was > 100000 nM.
HSV1 30 (gD0-28) (peptide) was tested, and the IC50 [10] was > 100000 nM, the IC50 [5] was 3800 nM and the IC50 [1] was > 100000 nM. The IC50 [11] was > 100000 nM, the IC50 [6] was 17700 nM and the IC50 [12] was 535 nM. For the same substance, the IC50 [13] was 374 nM, the IC50 [14] was 648 nM and the IC50 [2] was 79 nM. The IC50 [15] was 7 nM, the IC50 [16] was 11000 nM and the IC50 [17] was 374 nM. It also gave an IC50 [18] of 11000 nM, an IC50 [19] of 7 nM and an IC50 [20] of 648 nM. It also gave an IC50 [9] of 535 nM, an IC50 [7] of 17900 nM and an IC50 [8] of 3800 nM. For the same substance, the IC50 [4] was > 100000 nM.
For HSV1 31 (gD22-52) (peptide), the IC50 [10] was 397 nM, the IC50 [5] was 49000 nM and the IC50 [1] was > 100000 nM. The IC50 [21] was 63 nM, the IC50 [22] was 3 nM and the IC50 [11] was 397 nM. The IC50 [6] was 62000 nM, the IC50 [12] was 6980 nM and the IC50 [2] was 2490 nM. The IC50 [23] was 3 nM, the IC50 [24] was 63 nM and the IC50 [3] was 2490 nM. The IC50 [9] was 5980 nM, the IC50 [7] was 62000 nM and the IC50 [8] was 47000 nM. For the same substance, the IC50 [4] was > 100000 nM.
HSV1 32 (gD77-104) (peptide) was tested, and the IC50 [5] was 381 nM, the IC50 [6] was 1450 nM and the IC50 [12] was > 100000 nM. It also gave an IC50 [13] of 4 nM, an IC50 [14] of 300 nM and an IC50 [2] of 2350 nM. It also gave an IC50 [15] of 1 nM, an IC50 [17] of 4 nM and an IC50 [19] of 1 nM. The IC50 [20] was 300 nM, the IC50 [3] was 2350 nM and the IC50 [9] was > 100000 nM. The IC50 [7] was 1450 nM and the IC50 [8] was 381 nM.
For HSV1 34 (gD146-179) (peptide), the IC50 [10] was 743 nM, the IC50 [1] was > 100000 nM and the IC50 [21] was 632 nM. It also gave an IC50 [22] of 40 nM, an IC50 [11] of 743 nM and an IC50 [6] of 115 nM. The IC50 [12] was 2020 nM, the IC50 [13] was 316 nM and the IC50 [14] was 175 nM. The IC50 [2] was 10200 nM, the IC50 [15] was 85 nM and the IC50 [16] was 35 nM. It also gave an IC50 [17] of 316 nM, an IC50 [18] of 35 nM and an IC50 [19] of 85 nM. It also gave an IC50 [23] of 40 nM, an IC50 [20] of 175 nM and an IC50 [24] of 632 nM. The IC50 [3] was 10200 nM, the IC50 [9] was 2020 nM and the IC50 [7] was 115 nM. The IC50 [4] was > 100000 nM.
In the case of HSV1 36 (gD49-82) (peptide), the IC50 [5] is reported as 98 nM, the IC50 [1] is reported as > 100000 nM and the IC50 [21] is reported as 93 nM. It also gave an IC50 [22] of 3 nM, an IC50 [6] of 615 nM and an IC50 [12] of 5000 nM. It also gave an IC50 [13] of 173 nM, an IC50 [14] of 120 nM and an IC50 [2] of 1250 nM. It also gave an IC50 [15] of 66 nM, an IC50 [16] of 18 nM and an IC50 [17] of 173 nM. The IC50 [18] was 18 nM, the IC50 [19] was 66 nM and the IC50 [23] was 3 nM. For the same substance, the IC50 [20] was 120 nM, the IC50 [24] was 93 nM and the IC50 [3] was 1250 nM. The IC50 [9] was 5000 nM, the IC50 [7] was 615 nM and the IC50 [8] was 98 nM. The IC50 [4] was > 100000 nM.
For HSV1 38 (gD176-206) (peptide), the IC50 [10] was 1800 nM, the IC50 [1] was 200 nM and the IC50 [21] was 955 nM. The IC50 [22] was 54 nM, the IC50 [11] was 1800 nM and the IC50 [6] was 91 nM. It also gave an IC50 [12] of 25000 nM, an IC50 [13] of 21 nM and an IC50 [14] of 5 nM. For the same substance, the IC50 [2] was 1340 nM, the IC50 [15] was 91 nM and the IC50 [17] was 21 nM. The IC50 [19] was 91 nM, the IC50 [23] was 54 nM and the IC50 [20] was 5 nM. It also gave an IC50 [24] of 955 nM, an IC50 [3] of 1340 nM and an IC50 [9] of 25000 nM. The IC50 [7] was 91 nM and the IC50 [4] was 200 nM.
In the case of HSV1 40 (gD228-257) (peptide), the IC50 [10] is reported as 1160 nM, the IC50 [5] is reported as 7210 nM and the IC50 [1] is reported as 1590 nM. The IC50 [21] was 9920 nM, the IC50 [22] was 1160 nM and the IC50 [11] was 1160 nM. The IC50 [6] was 1360 nM, the IC50 [12] was > 100000 nM and the IC50 [13] was 20 nM. For the same substance, the IC50 [14] was 39 nM, the IC50 [2] was 2390 nM and the IC50 [16] was 2 nM. The IC50 [17] was 20 nM, the IC50 [18] was 2 nM and the IC50 [23] was 1160 nM. The IC50 [20] was 39 nM, the IC50 [24] was 9920 nM and the IC50 [3] was 2390 nM. The IC50 [9] was > 100000 nM, the IC50 [7] was 1360 nM and the IC50 [8] was 7210 nM. It also gave an IC50 [4] of 1590 nM.
HSV1 41 (gD96-123) (peptide) was tested, and the IC50 [10] was 1670 nM, the IC50 [1] was 4760 nM and the IC50 [22] was 3 nM. The IC50 [11] was 1670 nM, the IC50 [6] was 267 nM and the IC50 [12] was > 100000 nM. The IC50 [14] was 598 nM, the IC50 [16] was 167 nM and the IC50 [18] was 167 nM. For the same substance, the IC50 [23] was 3 nM, the IC50 [20] was 598 nM and the IC50 [9] was > 100000 nM. For the same substance, the IC50 [7] was 257 nM and the IC50 [4] was 4760 nM.
